From PMC10206189
Substitutions are numbered along the chain they refer to. Numbers in names are those of the source. Each block holds one binder with its values, some of them ahead of it.

Key:
VHH14-Fc (huarizo) [1] = experiment: BLI; Octet RED384, 25 °C, 1× Kinetics buffer; purified VHH-Fc captured on Protein G biosensors, mouse Plexin-B1 in solution (VHH14-Fc: 10-3.75 nM, 1800 s association, 7200 s dissociation; VHH15-Fc: 160-10 nM, 600 s, 510 s); global 1:1 fit
VHH14-Fc (huarizo) [2] = experiment: BLI; Octet RED384, 25 °C, 1× Kinetics buffer; VHH-Fc-loaded biosensors, mPlexin-B1 wildtype or H34Y P240Q at 400-6.25 nM, 300 s association, 600 s dissociation

Chain of VHH14-Fc (huarizo) (heavy, as listed by the source): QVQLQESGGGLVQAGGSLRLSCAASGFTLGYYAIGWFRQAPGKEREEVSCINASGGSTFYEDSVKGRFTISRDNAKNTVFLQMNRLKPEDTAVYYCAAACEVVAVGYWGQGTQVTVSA

Kd (VHH14-Fc (huarizo) [1]): 0.237 nM | Kd (VHH14-Fc (huarizo) [2]): 3.13 nM
B1: mouse Plexin-B1 (20–535)-6xHis (domain or fragment)
chain: LRSPLPAAFTANGTHLQHLARDPTTGTLYVGATNFLFQLSPGLQLEAVVSTGPVNDSRDCLPPVIPDECPQAQPTNNPNQLLLVSPEALVVCGSVHQGICELRSLGQIRQLLLRPERPGDTQYVAANDPAVSTVGLVAQGLVGEPLLFVGRGYTSRGVGGGIPPITTRALRPPDPQAAFSYEETAKLAVGRLSEYSHHFVSAFVRGASAYFLFLRRDLKAPSRAFRAYVSRVCLQDQHYYSYVELPLACQGGRYGLIQAAAVATSKEVARGDVLFAAFSSVAPPTVDWPLSASTGASGTSVLCAFPLDEVDQLANYTRDACYTREGRAENGTKVADIAYDVLSDCAQLPVDTPDAFPCGSDHTPSPMVSCVPLEATPILELPGVQLTAVAVTMEDGHTIAFLGDSQGQLHRVYLGPGRSAAPYSKQSIQPGSPVNRDLTFDGTFEHLYVATQTTLVKVPVAPCAQHLDCDSCLAHRDPYCGWCVLLGRCSRRSECSRDQGPEQWLWSFQPELGCLR

Kd (VHH14-Fc (huarizo) [2]): 255 nM
B2: mPlexin-B1 (20–535) H34Y P240Q (domain or fragment)
chain: B1 chain with H15Y, P221Q
